Data reported in patent publication US20140308287A1 (SEA LANE BIOTECHNOLOGIES, published 2014).

B1: 2817-C01 (Parent) (other)
VH: EVQLLESGGGLVQPGGSLRLSCAASGFTFSTYAMNWVRQAPGKGLEWVALISSGGSYKYYADSVKGRFTISRDNSKNTLYLQMNSLRAEDTAVYYCAKDNFILLNSWFDYWGQGTLVTVSS
surrogate light: QPVLHQPPAMSSALGTTIRLTCTLRNDHDIGVYSVYWYQQRPGHPPRFLLRYFSQSDKSQGPQVPPRFSGSKDVARNRGYLSISELQPEDEAMYYCAMGARSSVTHVFGSGTQLTVLSQPKATPSVTLFPPSSEELQANKATLVCLMNDFYPGILTVTWKADGTPITQGVEMTTPSKQSNNKYAASSYLSLTPEQWRSRRSYSCQVMHEGSTVEKTVAPAECS
B2: 2716-F05 (Parent) (other)
VH: EVQLLESGGGLVQPGGSLRLSCAASGFTFSNYWMHWVRQAPGKGLEWVALISGGGGNTYYADSVKGRFTISRDNSKNTLYLQMNSLRAEDTAVYYCAKDNEKNLYTWLDYWGQGTLVTVSS
light: B1 surrogate light
B3: 2817-C01 surroglobulin (SgG) (other)
VH: B1 VH
light: B1 surrogate light
notes: also called anti-ErbB3 SgG
B4: 2716-F05 surroglobulin (SgG) (other)
VH: B2 VH
light: B1 surrogate light
notes: also called anti-ErbB3 SgG

Tests used:
[1] = target: T1, human ErbB3-Fc (R&D Systems) (human, UniProt P21860 20-643); test: ELISA on ErbB3-Fc (Example 42); format of the parent not stated, the variants were soluble monovalent Sabs
T1 construct: Bought protein; also called wild-type ErbB3-Fc fusion; immobilized ErbB3; not shown: Fc part of the bought fusion protein; not described

[2] = target: T1, human ErbB3-Fc (R&D Systems); test: as above; remark: listed apart in the source
[3] = target: T1, human ErbB3-Fc (R&D Systems); test: ELISA, SgG on plate-coated human ErbB3-Fc, anti-VpreB detection
Protocol: (§1) Binding was detected using a biotinylated antibody that specifically recognizes VpreB, followed by streptavidin HRP. Detection used a colorimetric HRP substrate. Data was analyzed via using GraphPad Prism.

[4] = target: T2, human ErbB3 expressed on the surface of cells (BxPC-3 and other human tumor cell lines) (human, UniProt P21860 20-1342); test: flow cytometry on BxPC-3 cells, geometric mean fluorescence intensity
T2 construct: SKBR3, PathHunter reporter cells in functional assays; The leader 1-19 is not part of the mature protein; also called cell surface ErbB3; cell surface receptor
Protocol: (§2) Briefly, BxPC-3 cells were first dissociated using 0.25% trypsin, 0.2% EDTA, washed in cold PBS, 1% BSA, and then resuspended at 3×10⁶ cells/ml. SgGs (described above) were added at the indicated concentrations in Staining Buffer (Becton Dickinson) and incubated at 4 degrees C. for 1 hour. Next the cells were washed in stain buffer and resuspended with 1:133 diluted biotinylated goat anti-human IgG (Southern Biotech #2040-08) and incubated at 4 degrees C. for 1 hour. Cells were then washed in stain buffer and resuspended with Alexa488 conjugated streptavidin (Invitrogen #S11223) and incubated at 4 degrees C. for 1 hour. One microliter of the vital stain 7AAD (Invitrogen #A1310) was added during the last 15 minutes of incubation. Cells were washed with stain buffer and analyzed on a flow cytometer.
(§3) Thereafter only signals arising from this gated population were analyzed. Geometric mean fluorescence intensity for cells stained using the indicated concentrations of SBPs were determined using FLOWJO analysis software and EC50s were calculated using Graphpad Prism.

[5] = target: T1, human ErbB3-Fc (R&D Systems); test: ELISA on plate-coated human ErbB3-Fc with 1.85 nM NRG1-beta 1 extracellular domain added before the SBP (+ NRG), detection biotinylated anti-VpreB (Example 43); axis labelled log [Sab] nM
Excerpt: (§4) The resulting bound SgGs were detected using a biotinylated anti-VpreB, followed by streptavidin HRP colorimetric detection.

[6] = target: T1, human ErbB3-Fc (R&D Systems); test: ELISA, inhibition of binding of NRG1-beta 1 ECD (0.26 ug/ml) to plate-coated human ErbB3-Fc
Protocol: ELISA plates were coated with human ErbB3-Fc. Various concentrations of the indicated anti-ErbB3 SBPs were then allowed to bind to the coated wells. […] Detection used a colorimetric HRP substrate.
Data was analyzed using GraphPad Prism.

[7] = target: T1, human ErbB3-Fc (R&D Systems); test: ELISA on plate-coated human ErbB3-Fc without NRG, detection biotinylated anti-VpreB and streptavidin HRP (Example 43); axis labelled log [Sab] nM, text speaks of SgGs
Excerpt: as §4

ErbB2-Fc = target: T3, ErbB2-Fc (human, UniProt P04626 23-652); test: ELISA on plate-coated ErbB2-Fc, detection biotinylated anti-VpreB (Example 52)
T3 construct: The sentence reads 'human ErbB3-Fc, EGFR-Fc (ErbB1) or ErbB2-Fc'; 'human' is read as applying to all three; not shown: Fc part; not described
Excerpt: (§5) ELISA plates were coated with human ErbB3-Fc, EGFR-Fc (ErbB1) or ErbB2-Fc. Various concentrations of the indicated anti-ErbB3 SBPs were then allowed to bind to the coated wells. Binding was detected using a biotinylated antibody that specifically recognizes VpreB, followed by streptavidin HRP. Detection used a colorimetric HRP substrate.

[8] = target: T1, human ErbB3-Fc (R&D Systems); test: ELISA on plate-coated human ErbB3-Fc, detection biotinylated anti-VpreB and streptavidin HRP (Example 52)
Excerpt: as §5

[9] = target: T2, human ErbB3 expressed on the surface of …; test: flow cytometry on BxPC-3 cells
Protocol: as §2, §3

[10] = target: T1, human ErbB3-Fc (R&D Systems); test: ELISA, SgG on plate-coated human ErbB3-Fc
Protocol: as §1

EGFR-Fc (ErbB1) = target: T4, EGFR-Fc (ErbB1) (human, UniProt P00533 25-645); test: ELISA on plate-coated EGFR-Fc (ErbB1), detection biotinylated anti-VpreB (Example 52)
T4 construct: The sentence reads 'human ErbB3-Fc, EGFR-Fc (ErbB1) or ErbB2-Fc'; 'human' is read as applying to all three; not shown: Fc part; not described
Excerpt: as §5

[11] = target: T5, murine ErbB3-Fc (R&D Systems) (mouse, UniProt Q61526 20-641); test: ELISA, SgG on plate-coated murine ErbB3-Fc, anti-VpreB detection
T5 construct: Bought protein; also called mouse ErbB3; not shown: Fc part of the bought fusion protein; not described
T5 sequence (Q61526 20-641 limits assumed): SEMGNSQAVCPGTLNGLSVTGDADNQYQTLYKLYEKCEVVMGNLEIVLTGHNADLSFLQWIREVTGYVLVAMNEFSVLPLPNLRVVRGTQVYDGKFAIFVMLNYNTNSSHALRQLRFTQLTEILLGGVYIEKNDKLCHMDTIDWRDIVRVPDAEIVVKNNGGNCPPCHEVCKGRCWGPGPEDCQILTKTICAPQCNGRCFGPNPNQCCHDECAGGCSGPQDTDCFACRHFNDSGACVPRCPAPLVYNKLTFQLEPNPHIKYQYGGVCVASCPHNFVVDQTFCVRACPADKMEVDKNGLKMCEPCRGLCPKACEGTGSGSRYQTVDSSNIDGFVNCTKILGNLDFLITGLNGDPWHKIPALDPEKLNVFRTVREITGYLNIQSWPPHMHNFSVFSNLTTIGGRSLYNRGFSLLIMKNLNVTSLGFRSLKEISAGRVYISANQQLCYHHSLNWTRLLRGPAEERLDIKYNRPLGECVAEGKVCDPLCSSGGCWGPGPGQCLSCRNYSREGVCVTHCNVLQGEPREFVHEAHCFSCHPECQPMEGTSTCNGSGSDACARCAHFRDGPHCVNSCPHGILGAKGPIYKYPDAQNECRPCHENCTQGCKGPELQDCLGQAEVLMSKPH
Protocol: (§6) Binding was detected using a biotinylated antibody that recognizes VpreB, followed by strepatvidin HRP. Detection used a colorimetric HRP substrate. Data was analyzed via using GraphPad Prism.

[12] = target: T5, murine ErbB3-Fc (R&D Systems); test: ELISA, SgG on plate-coated murine ErbB3-Fc
Protocol: as §6

Binder | EC50 [1] [nM] | EC50 [2] [nM] | EC50 [3] [nM] | EC50 [4] [nM] | EC50 (read off the curve) [5] [nM] | IC50 [6] [nM] | EC50 (read off the curve) [7] [nM] | binding result (ErbB2-Fc) | EC50 (read off the curve) [8] [nM] | EC50 [9] [nM] | EC50 [10] [nM] | binding result (EGFR-Fc (ErbB1)) | EC50 [11] [nM] | EC50 [12] [nM]
B1 | 0.055 |  |  |  |  |  |  |  |  |  |  |  |  | 
B2 |  | 0.22 |  |  |  |  |  |  |  |  |  |  |  | 
B3 |  |  | 0.04 | 0.12 | ~0.3 | 0.99 | ~0.2 | no binding (tested: 1000 nM) | ~0.05 | 0.138 | 0.041 | no binding (tested: 1000 nM) |  | 
B4 |  |  | 0.05 | 0.04 | ~0.7 | 0.52 | ~0.5 | no binding (tested: 1000 nM) | ~0.08 | 0.04 | 0.049 | no binding (tested: 1000 nM) | 0.06 | 0.095
